Our source for the amyloid nucleation score values is the supplement of paper PMC12042874.

± gives the uncertainty stated by the source.

The series can be described thus: amyloid nucleation score (Sup35N fusion, yeast selection) (log enrichment); library NNK1; higher = more nucleation; inactive = no reads after selection. The gist of the method:
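Yeast lacking psi expressed peptides of 20 random codons fused to Sup35N, received 100 μM copper sulfate for 24 hours, and were then grown for 7 days at 30°C on medium lacking adenine and uracil. Illumina sequencing of input and output plasmid inserts provided the reads. Nucleation scores are DiMSum log enrichments of output over input, centred on the mode of non-aggregating sequences. Any sequence with under 100 input reads was excluded.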
Consider KVLFLTCYTTPSLNNLVFRC, for which the amyloid nucleation score was -0.069 ± 0.28.

With FSYTDNSTRFVTFQLRNIPA, the amyloid nucleation score was determined as 0.598 ± 0.33.

As to RSWDRYMFGRNRCVDWGR, the amyloid nucleation score came to 0.107 ± 0.9.

Consider VNRFANVLRR, for which the amyloid nucleation score was determined as 0.234 ± 0.29.

The substance SSLGNEFIFDSFGNK showed an amyloid nucleation score of -0.772 ± 0.73.

Turning to LDSARMGLFITGMV, the amyloid nucleation score is -1.06 ± 0.87.

For NSASYII, the amyloid nucleation score is -0.048 ± 0.24.

Turning to QSVCSTCSRGPSHCAAGSV, the amyloid nucleation score was 0.17 ± 0.31.

Regarding ERWIVVPDESTTRTTHRHIN, the amyloid nucleation score amounted to 0.147 ± 1.6.

LNRTRCLWL showed an amyloid nucleation score of 0.877 ± 0.58.

On to MMFAKDSI, for which the amyloid nucleation score worked out at 0.372 ± 0.47.

In the case of TYANGGALALAIVAVKC, the amyloid nucleation score was -0.398 ± 0.64.

NHYCRFHFTLESFLAGHVAN yielded an amyloid nucleation score of 1.38 ± 0.23.

Substance GSALIE came in with an amyloid nucleation score of 1.5 ± 0.74.

YLMFFVYCVRLRYLSWALSQ displayed an amyloid nucleation score of -1.35 ± 1.9.

For the substance NLNSMAFV, the amyloid nucleation score was 0.662 ± 0.56.

As to HYSNVKTGGKSGKWEIRDLE, the amyloid nucleation score is -0.559 ± 0.35.

For the substance TMISLAFIIYPLNMAPMYME, the amyloid nucleation score is 1.97 ± 0.45.

For AVSSYYVERRYLNLQGANRY, the amyloid nucleation score amounted to 3.22 ± 0.15.

Substance ADSFSI returned an amyloid nucleation score of -0.118 ± 0.44.

In turn, SFESVVIVLKLNALFPCVST showed an amyloid nucleation score of -0.048 ± 0.28.

Turning to VMLPHHWSLNKNY, the amyloid nucleation score was 0.264 ± 0.29.

In turn, MFFSCGVLTILNWIKLKMAR showed an amyloid nucleation score of -0.839 ± 1.1.

On to TEYISG, for which the amyloid nucleation score is -0.026 ± 0.97.

For KLYLVVRMTGQPPSGMACVL, the amyloid nucleation score was determined as 0.142 ± 1.2.

VFTSAD returned an amyloid nucleation score of 0.093 ± 0.39.

Consider KQNSKLFLIFIGNALGQVTV, for which the amyloid nucleation score turned out to be 5.09 ± 0.064.

In turn, VGTDLNETVG registered an amyloid nucleation score of -0.646 ± 1.5.

On to RLIIME, for which the amyloid nucleation score result was “inactive”.

Substance DWRFSGALRLSLMHTYQ yielded an amyloid nucleation score of 4.09 ± 0.072.

Turning to FLGMIFTELSINMKVSRRP, the amyloid nucleation score was -1.12 ± 1.2.

TFPGEWHWERTIVIVPNFFH displayed an amyloid nucleation score of 2.03 ± 0.15.

ADLSISRWCLCGRNALGLFF came in with an amyloid nucleation score of 5.12 ± 0.07.

The substance MTHLNPMSFVDPKFVPVDFS returned an amyloid nucleation score of 2.48 ± 0.47.

As to WSGTDRMCSVMTYS, the amyloid nucleation score was -0.841 ± 0.51.

Consider IVRSAVRLELSGLPRCQGIS, for which the amyloid nucleation score was -0.065 ± 0.95.

STMFYLIFCQCTSIYANLYQ came in with an amyloid nucleation score of 0.063 ± 0.41.

MEFNMWYLFGDLLVTLDWPK came in with an amyloid nucleation score of 0.044 ± 0.45.

For WSSPQEQT, the amyloid nucleation score is -1.59 ± 1.5.

In turn, NYAARPHSRSLLGAYDCSWS showed an amyloid nucleation score of 0.731 ± 0.47.

In turn, DLMGSWYDLRYMKGLKGK registered an amyloid nucleation score of -0.265 ± 0.13.

Take LVPVITWK: the amyloid nucleation score was found to be 4.3 ± 0.13.

On to SVVSFINLIASYFRELVGAV, for which the amyloid nucleation score stood at 0.225 ± 0.95.

In the case of LGLGDGLLVRFNKFCGLMGR, the amyloid nucleation score was -0.153 ± 1.2.

The substance LFNYPS came in with an amyloid nucleation score of -0.948 ± 1.1.

Regarding WFIPNKGTYREAYFLSCLGS, the amyloid nucleation score was -0.954 ± 1.3.

In turn, TFLEIKVRD gave an amyloid nucleation score of -0.496 ± 0.19.

In turn, RSRNSPTR displayed an amyloid nucleation score of -0.027 ± 0.37.

For the substance DVILCAK, the amyloid nucleation score entry was “inactive”.

AFFYYIEQDSYTVRSIMI registered an amyloid nucleation score of -0.294 ± 0.42.

Take WRMYMYVNNPSNKHWVRRAS: the amyloid nucleation score was -0.488 ± 0.51.

On to VQADFFCSAPGHCIWVNGMR, for which the amyloid nucleation score was determined as 1.73 ± 0.31.

Substance DIVATYRVRISLNPNVMVTY displayed an amyloid nucleation score of 0.466 ± 0.32.

Substance LVLHNVDELYINSSHF displayed an amyloid nucleation score of 0.77 ± 0.5.

Substance VLNYHLH came in with an amyloid nucleation score of -0.569 ± 0.79.

Regarding HMRTNKVFPCYPWPFTYTPP, the amyloid nucleation score entry is “inactive”.

Regarding HPRMCWVPVISIIPLLSVMA, the amyloid nucleation score stood at 0.185 ± 0.41.

AFCSAAVQAEICEWCNSIYA: the amyloid nucleation score was -0.431 ± 0.64.

AGLWYNWRECSFHRVVVGYP: the amyloid nucleation score worked out at 0.737 ± 0.55.

YIIWFPFSKLVLMRYHRSWG yielded an amyloid nucleation score of -0.005 ± 0.22.

IPVWTYIVWAQESILQRGCW displayed an amyloid nucleation score of 0.217 ± 0.46.

RMIKNYSIS: the amyloid nucleation score stood at 0.89 ± 0.55.

Substance CFRISARFFRVQFHGVVCIW came in with an amyloid nucleation score of 1.51 ± 0.25.

Substance KIPYVFFGKRTGVSLFRMFD displayed an amyloid nucleation score of 0.202 ± 0.56.

Regarding MFIVYRMDLEFM, the amyloid nucleation score was found to be 1.64 ± 0.51.

Turning to LSRTKGKAQCLGQVGRMRVL, the amyloid nucleation score came out at 0.294 ± 0.54.

Take FFLSLARVGVILHPMMVLTG: the amyloid nucleation score was -0.35 ± 0.64.

DWLVRGVFPYVGMLDIALTY: the amyloid nucleation score was determined as 0.356 ± 0.72.

Regarding IESMVYITPCIEGIRWNWEK, the amyloid nucleation score amounted to 0.122 ± 0.36.

LRVRFKSWDLSITLGVQ: the amyloid nucleation score came to 1.26 ± 0.9.

RHLRVTFNSLSWRKMKAGVV: the amyloid nucleation score is -0.314 ± 0.86.

In the case of CFFPIRDQQCTRSYHFSDHM, the amyloid nucleation score stood at 0.727 ± 0.63.

In the case of LIQWENGTH, the amyloid nucleation score is -0.672 ± 0.34.

Substance DVVLVYGTITGSWVQSVWEG registered an amyloid nucleation score of 0.553 ± 0.69.

As for MDKLMSMELLSFLGNRSVHV, the amyloid nucleation score result was “inactive”.

HRILRESRAGRF: the amyloid nucleation score was -0.396 ± 0.36.

The substance ITYYVNFDFCQGSLARVWLC yielded an amyloid nucleation score of 5.01 ± 0.059.

On to SSLPRPPMPKWSDV, for which the amyloid nucleation score stood at 0.125 ± 0.88.

In the case of AGSDGQGDGEQWRNHLRPIA, the amyloid nucleation score was -0.294 ± 0.64.

As for MWVYFVLCKKVAEGVCFIDT, the amyloid nucleation score came out at 0.996 ± 0.61.

For QSSYVLCHFILE, the amyloid nucleation score is -0.219 ± 1.2.

For the substance SLGIHPHVDKLLYRRFQLDY, the amyloid nucleation score was -0.567 ± 0.77.

The substance GGALSCVRDF registered an amyloid nucleation score of 1.39 ± 0.78.

As to HLTKRGLSQTKRSAALQRVG, the amyloid nucleation score is 0.514 ± 1.2.

YSAIRTKFFAA showed an amyloid nucleation score of 0.616 ± 1.1.

Substance LHGPVFYKFACVVASPWGSI showed an amyloid nucleation score of -0.235 ± 0.41.

The substance YPLPV gave an amyloid nucleation score of 0.376 ± 0.28.

On to VVLDAFIPWYSLLATSSVGA, for which the amyloid nucleation score is -0.777 ± 2.4.

PLEMGSHIGRL: the amyloid nucleation score was -1.54 ± 2.7.

As for NMHLTYETDRFARYVNSKFN, the amyloid nucleation score came to 0.744 ± 0.46.

Consider VWTMIYSTCGSDFYFCSVEL, for which the amyloid nucleation score worked out at 0.715 ± 0.47.

The substance SEMSLSRDSCLLSIV registered an amyloid nucleation score of 0.141 ± 0.18.

The substance AKMRMNNSFFFTVNWVLMNW showed an amyloid nucleation score of -0.461 ± 0.4.

Take NFPKHFSSALRF: the amyloid nucleation score was -0.081 ± 0.35.

The substance LKNGSDSILDARVYLGG came in with an amyloid nucleation score of -0.221 ± 0.51.

In turn, EFRMFTLKLR yielded an amyloid nucleation score of 1.13 ± 0.65.

The substance YVFSCTGLNR yielded an amyloid nucleation score of -1.03 ± 1.

Turning to AIPGGVTGTGWSSM, the amyloid nucleation score was -0.221 ± 0.51.

GCLNDCGSLVWYGVCKSCLP: the amyloid nucleation score came out at 0.446 ± 0.6.

With PLARRVSAHILVRMNYRNFM, the amyloid nucleation score is -0.048 ± 0.37.

For the substance ITLNWKIAEFSRCTVQLQNL, the amyloid nucleation score was determined as 6.324 ± 0.061.

Turning to YSDLSVHHYFWHQFRQKCDR, the amyloid nucleation score is 2.01 ± 0.21.

Consider VSSNYMRNML, for which the amyloid nucleation score is 0.169 ± 0.34.

As to RSFVSEGYFGCWDRDTDYTD, the amyloid nucleation score is -0.894 ± 1.2.

Take TKWAVDY: the amyloid nucleation score is 0.347 ± 0.28.

GIFNYWRYYMVDV came in with an amyloid nucleation score of 0.673 ± 0.29.

NRLRNGPNDRVVRATAPKGF returned an amyloid nucleation score of 0.259 ± 0.4.

As for IGENCRWRMSSRCGFNGNDT, the amyloid nucleation score was -0.37 ± 0.43.

In turn, TIAMCISLIGIDSYY displayed an amyloid nucleation score of 0.997 ± 0.29.

KVVTGLIYFWCIWCFGTLRV gave an amyloid nucleation score of 0.431 ± 0.9.

For the substance YSNWTVSTSFSNHERHVFLA, the amyloid nucleation score was 0.839 ± 0.39.

The substance RYAWVTMVVYACLQLGSASR had an amyloid nucleation score of 0.678 ± 0.21.

LWGRFYIYHSLFHRSHHVKL showed an amyloid nucleation score of -0.284 ± 1.

Substance MHTKRTTDNKYGSY had an amyloid nucleation score of -0.208 ± 0.38.

The substance MFGGYRSC yielded an amyloid nucleation score of 0.159 ± 1.2.

NNINWVKGKHR had an amyloid nucleation score of -1.06 ± 2.4.

The substance HYAVGRARNLGCLDLSQ displayed an amyloid nucleation score of 0.064 ± 0.48.

Substance LLGASLNVKPESDFLLPAKR displayed an amyloid nucleation score of 0.175 ± 0.41.

Consider QQSQC, for which the amyloid nucleation score entry was “inactive”.

In turn, GRVQL yielded an amyloid nucleation score of 0.405 ± 0.48.

As to TIASTGVFNM, the amyloid nucleation score result was “inactive”.

In turn, TEAMTGYVLNNNWYSQLYVF yielded an amyloid nucleation score of -0.601 ± 1.1.

LRSSEYWSLMEVDLVMDSLP displayed an amyloid nucleation score of 0.629 ± 0.97.

Substance VGSLGM had an amyloid nucleation score of -0.221 ± 0.37.

As for DSLVGVARDSMTSKQHNKNE, the amyloid nucleation score is -0.112 ± 0.69.

In turn, WWDHVWGVR showed an amyloid nucleation score of 0.31 ± 0.75.

As for VFADVISIKMNCTLLTSILL, the amyloid nucleation score was 0.823 ± 0.37.

In turn, RLTYSSCSGNLWYFRFKSVE came in with an amyloid nucleation score of 0.415 ± 0.67.

In turn, DWANSTDFV showed an amyloid nucleation score of -0.195 ± 0.18.

As for REEKV, the amyloid nucleation score was determined as 0.068 ± 0.42.

Substance IVVYVCIVGNNAPSLDAKSV returned an amyloid nucleation score of 0.923 ± 0.23.

Substance SARYLMEFWKVHIKAYIMSF gave an amyloid nucleation score of 0.099 ± 0.79.

The substance TVRLKLINRYPDENRLYTDH showed an amyloid nucleation score of 1.3 ± 0.21.

On to AESLIKHLK, for which the amyloid nucleation score was 0.334 ± 0.43.

Take PEGWYLTNCRAGRFSSR: the amyloid nucleation score was -0.222 ± 0.39.

Take AVLKGYRWACMVFLSGFGRC: the amyloid nucleation score is 0.243 ± 0.41.

The substance VCKGSHWFIYLRNGFKSPSV gave an amyloid nucleation score of 1.46 ± 0.65.

The substance FIIEQANGQGYNYLHI gave an amyloid nucleation score of -0.481 ± 0.48.

LNIGTW yielded an amyloid nucleation score of 0.185 ± 0.28.

Substance PTFFHNCVDTFRSS showed an amyloid nucleation score of -0.026 ± 0.47.

PCSKAFRAVNISEAKIDFGN had an amyloid nucleation score of -0.416 ± 0.5.

Substance LIHRA returned an amyloid nucleation score of -0.041 ± 0.32.

Regarding ISVKHKFPGANSSVRWDRFW, the amyloid nucleation score came to 3.47 ± 0.11.
